Target: Trypanosoma brucei enolase (Trypanosoma brucei)
Assay: SEC

stoichiometry N: 2
Substance: Trypanosoma brucei enolase (enzyme)

Reference: paper doi:10.64898/2025.12.17.694860
